Test results taken from paper PMC4314665, “Diversity of two-component systems: insights into the signal transduction mechanism by the Staphylococcus aureus two-component system GraSR” (F1000Research, 2014).

Assays:
[1] = target: T1, GraR (Staphylococcus aureus Mu50) (UniProt Q932F1); assay: DNase I footprinting; conditions: 10 ng 32P-labelled promoter DNA, buffer, salt, pH and temperature not given (as described previously, ref 17)
T1 sequence: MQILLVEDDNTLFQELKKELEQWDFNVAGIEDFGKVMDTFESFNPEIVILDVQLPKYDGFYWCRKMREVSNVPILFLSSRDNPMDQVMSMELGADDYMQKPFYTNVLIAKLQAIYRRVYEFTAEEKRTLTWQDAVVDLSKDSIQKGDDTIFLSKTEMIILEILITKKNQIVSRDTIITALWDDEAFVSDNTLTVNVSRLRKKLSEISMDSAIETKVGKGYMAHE

[2] = tested on: GraR (Staphylococcus aureus Mu50); assay: DNase I footprinting; conditions: 10 ng 32P-labelled promoter DNA, buffer, salt, pH and temperature not given (as described previously, ref 17)
[3] = tested on: GraR C (C-terminal DNA-binding domain) (Staphylococcus aureus Mu50); assay: DNase I footprinting; conditions: 10 ng 32P-labelled promoter DNA, buffer, salt, pH and temperature not given (as described previously, ref 17)
[4] = target: T2, GST-BceS, cytoplasmic region of histidine kinase BceS (62-334) fused to GST (B. subtilis strain 168, UniProt O35044 62-334); assay: pull-down; GST-fused bait immobilised on glutathione-sepharose resin in 1 x PBS; prey added at bait:prey ratios of about 1:1 to 1:2, 30 min at room temperature; five to seven washes; elution with 10 mM reduced glutathione in 50 mM Tris pH 8.0; SDS-PAGE; conditions: both partners purified
T2 construct: Histidine kinase BceS (334 amino acids), B. subtilis strain 168, cytoplasmic region, residues 62-334; Cloned in pGEX-4T-1; source: E. coli BL21(DE3), purified (glutathione-sepharose); not shown: GST, N-terminal, kept
T2 sequence: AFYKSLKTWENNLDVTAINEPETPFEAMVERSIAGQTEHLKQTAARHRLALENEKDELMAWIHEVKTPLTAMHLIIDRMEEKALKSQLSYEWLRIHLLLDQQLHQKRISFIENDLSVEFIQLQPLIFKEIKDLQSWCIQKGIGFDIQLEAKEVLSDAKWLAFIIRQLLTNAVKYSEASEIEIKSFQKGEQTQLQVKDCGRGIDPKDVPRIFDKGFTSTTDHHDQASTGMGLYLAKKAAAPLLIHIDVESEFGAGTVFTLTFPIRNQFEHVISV

[5] = target: the molecule itself; assay: SDS-PAGE in the presence and absence of DTT; purified GraX on SDS-PAGE with and without dithiothreitol; data not shown

GGATCCTTTAGGTTTCATCTAAAATACTCCTTTAAACTGTAACCAAAAAACATATTACTCCACCTTTTAGTTACATATATATTATAATAGTAGCAAATGTTTTAAAATTTCAAAATACTGGAGGCTTTTTATGGCCCATATTATACGTAGAGTTAGTATCAAAGATGTAGAAAATTTCATTTCAATGAATTCCG (double strand) [graSR promoter]
binding [1]: no binding

PvraFG promoter
Kd [2]: 800 nM | Kd [3]: 2400 nM

B1: BceR, response regulator of Bacillus subtilis (natural protein)
chain: MFKLLLIEDDESLFHEIKDRLTGWSYDVYGIQDFSQVLQEFAAVNPDCVIIDVQLPKFDGFHWCRLIRSRSNVPILFLSSRDHPADMVMSMQLGADDFIQKPFHFDVLIAKIQAMFRRVHHYNTEPSTIKTWCGAAVDAEQNLVSNDKGSVELTKNEMFILKQLIEQKNKIVSREELIRSLWNDERFVSDNTLTVNVNRLRKKLDALQLGAYIETKVGQGYIAKEEDKFYD
notes: Response regulator BceR, B. subtilis strain 168; the bceR gene amplified with primers from the start to the stop codon; no extra amino acids on either terminus; Cloned in pET26b(+), untagged; source: E. coli BL21(DE3), purified (DEAE-Sepharose, heparin-sepharose), up to 90% purity
binding result [4]: binds

B2: GraX, auxiliary protein (tagless) (natural protein)
chain: MKPKVLLAGGTGYIGKYLSEVIENDAELFAISKYPDNKKTDDVEMTWIQCDIFHYEQVVAAMNQIDIAVFFIDPTKNSAKITQSSARDLTLIAADNFGRAAAINQVKKVIYIPGSRYDNETIERLGAYGTPVETTNLVFKRSLVNVELQVSKYDDVRSTMKVVLPKGWTLKNVVNHFIAWMGYTKGTFVKTEKSHDQFKIYIKNKVRPLAVFKIEETADGIITLILLSGSLVKKYTVNQGKLEFRLIKESAVVYIHLYDYIPRLFWPIYYFIQAPMQKMMIHGFEVDCRIKDFQSRLKSGENMKYTK
notes: Auxiliary protein GraX, S. aureus strain Mu50, full length graX gene; Cloned in pET26b between NdeI and HindIII; Dimers seen by SDS-PAGE without DTT; also called untagged GraX; source: E. coli BL21(DE3), purified (SP-Sepharose cation exchange), to 90%
stoichiometry N [5]: 2
